The target in the series is beta-catenin (UniProt P35222 P35222:2-781). In words: photocrosslink returned to full activity without 3' fixed region. The conditions noted are these: tags: NHS-PEO4-biotin or His tag (assay used TALON beads); label: 32P. Here is the method:
Radiolabeled aptamer (100 pM) was denatured and renatured as described above, with, or without a 100-fold excess of unlabeled 3′ primer. The samples were incubated with or without 10 nM β-catenin protein in SB17 for 30 minutes at 37° C., after which complexes were crosslinked by irradiation with an OAI Hg lamp (Optical Associates, Inc. model 0131-0003-01, 500 W, with 310 nm mirror set) for 10 minutes at 37° C. Samples were mixed with 2× formamide loading buffer, heated for 10 minutes at 70° C., and loaded on a 10% polyacrylamide TBE-urea gel. Phosphorimages were collected with a FUJI FLA-3000 FIG. 7A. Crosslink activity was determined for each sample by quantifying the free aptamer and aptamer:protein signals with FUJI ImageGauge image analysis software and calculating the percent of total DNA crosslinked with target protein and subtracting the percent crosslinked without protein.

Sequence of beta-catenin (P35222 2-781, one chain of several): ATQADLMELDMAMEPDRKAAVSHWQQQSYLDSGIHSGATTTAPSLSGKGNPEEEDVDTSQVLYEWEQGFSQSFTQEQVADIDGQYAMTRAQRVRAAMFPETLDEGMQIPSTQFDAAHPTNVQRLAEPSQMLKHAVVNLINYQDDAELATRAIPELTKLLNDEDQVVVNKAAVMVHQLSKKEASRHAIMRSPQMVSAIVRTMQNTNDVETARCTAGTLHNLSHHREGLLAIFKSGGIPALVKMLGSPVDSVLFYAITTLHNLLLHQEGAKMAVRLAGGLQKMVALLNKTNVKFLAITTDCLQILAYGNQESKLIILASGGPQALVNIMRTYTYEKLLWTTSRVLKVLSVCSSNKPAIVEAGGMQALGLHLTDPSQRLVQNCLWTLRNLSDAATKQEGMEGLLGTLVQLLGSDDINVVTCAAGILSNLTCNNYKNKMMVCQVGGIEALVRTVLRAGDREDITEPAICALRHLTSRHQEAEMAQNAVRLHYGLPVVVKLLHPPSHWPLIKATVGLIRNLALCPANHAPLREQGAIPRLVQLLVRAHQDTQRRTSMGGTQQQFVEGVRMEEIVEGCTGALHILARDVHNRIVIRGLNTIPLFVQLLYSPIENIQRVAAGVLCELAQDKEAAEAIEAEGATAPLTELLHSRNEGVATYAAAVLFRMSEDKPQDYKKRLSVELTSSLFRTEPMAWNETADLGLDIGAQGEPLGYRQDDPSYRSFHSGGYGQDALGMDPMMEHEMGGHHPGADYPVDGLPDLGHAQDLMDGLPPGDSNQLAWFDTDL

B1: 2092-68-6 (ssDNA)
DNA: ATATATATGAGTGACCGTCTGCCTGAGCUGCGGUUGAUGAUAUACUUCGCUUUCACUGCUCACAC
modifications: X=ANA-dT, Z=BzdU
Consider B1, for which the binding result is listed as “binds”.
